The target of one assay is T1, chimera 3 (m,m,m) (mouse; human, UniProt P09581 21-292).
T1 construct: range 21-292; not shown: Fc portion of an IgG molecule
In words: binding ELISA, coated chimera. The procedure:
(§1) Briefly, coat plates with 100 μL of 200 ng/mL human, mouse or chimera 1-7 proteins overnight.

The target in a further assay is T2, mouse CSF-1R (mouse, UniProt P09581 20-511, limits assumed).
T2 construct: also called murine form of the receptor
T2 sequence (looked up): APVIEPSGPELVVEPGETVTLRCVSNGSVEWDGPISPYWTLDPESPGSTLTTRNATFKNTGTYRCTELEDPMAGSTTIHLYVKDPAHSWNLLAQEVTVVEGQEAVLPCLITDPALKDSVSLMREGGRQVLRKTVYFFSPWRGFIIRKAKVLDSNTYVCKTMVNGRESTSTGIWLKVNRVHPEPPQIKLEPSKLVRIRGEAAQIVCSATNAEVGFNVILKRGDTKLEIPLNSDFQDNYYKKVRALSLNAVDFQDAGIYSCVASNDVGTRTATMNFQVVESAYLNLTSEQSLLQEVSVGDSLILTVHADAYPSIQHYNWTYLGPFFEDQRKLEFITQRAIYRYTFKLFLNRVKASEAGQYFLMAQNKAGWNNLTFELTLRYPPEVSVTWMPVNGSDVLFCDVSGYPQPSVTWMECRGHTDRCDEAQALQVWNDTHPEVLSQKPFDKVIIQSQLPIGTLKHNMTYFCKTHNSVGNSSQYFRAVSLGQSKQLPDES
The assay can be described thus: binding ELISA, coated receptor protein. The procedure: as §1

T1 sequence (P09581 other isoform, or with tags, fused parts or gaps mutant): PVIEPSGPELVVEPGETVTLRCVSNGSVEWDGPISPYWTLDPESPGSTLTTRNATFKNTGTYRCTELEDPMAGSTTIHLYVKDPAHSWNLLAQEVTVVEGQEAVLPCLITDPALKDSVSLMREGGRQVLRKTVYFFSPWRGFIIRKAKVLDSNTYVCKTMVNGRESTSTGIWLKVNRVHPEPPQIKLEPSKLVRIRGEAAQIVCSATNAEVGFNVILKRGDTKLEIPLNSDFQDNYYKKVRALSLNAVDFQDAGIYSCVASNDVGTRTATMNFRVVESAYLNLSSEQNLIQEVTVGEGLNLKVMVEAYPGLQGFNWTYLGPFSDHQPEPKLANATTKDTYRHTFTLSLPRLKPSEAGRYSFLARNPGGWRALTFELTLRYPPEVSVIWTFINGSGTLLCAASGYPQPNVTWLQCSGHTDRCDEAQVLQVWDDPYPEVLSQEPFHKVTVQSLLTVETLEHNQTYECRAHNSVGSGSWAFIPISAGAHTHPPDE

B1: Antibody 1 (antibody, human IgG1, kappa, V domains shown)
VH: QDQLVESGGGVVQPGRSLRLSCAASGFTFSSYGMHWVRQAPGEGLEWVAVIWYDGSNKYYADSVKGRFTISRDNSKNTLYLQMNSLRAEDTAVYYCARGDYEVDYGMDVWGQGTTVTVAS
VL: AIQLTQSPSSLSASVGDRVTITCRASQGISNALAWYQQKPGKAPKLLIYDASSLESGVPSRFSGSGSGTDFTLTISSLQPEDFATYYCQQFNSYPWTFGQGTKVEIKR
notes: also called anti-CSF-1R Antibody 1
Regarding B1, the binding result with chimera 3 (m,m,m) and in the assay with mouse CSF-1R was “no binding (tested: 100 nM)” in each case.
